This data set is described as follows: label from the status in PepcDB records.

“MEMEMINIRVLRFEPGVDEKPHLESYEIPSKEKMKVLDALQLINKIHGANIAFRSSCRAGQCGSCAVKMNGEVVLACRAEVEDGAIIEPIDLPVIKDLMVDRGEIEEKVKSMQLYLQASSEGIQRIRPEDYLDSKKLRGCIECFSCISSCPVIKESSEYAGPYFMRYLSKFAFDPRDTGDRAQEGVDKGLYCCTTCGKCAEVCPKELNVPGDAIEKLRAMACREGSGPLDAHRRIKKLISETGRSVDRIKDGFIESVGKNPGSRIGFFTGCLVDYRMPEVGMALLRVLREHGFDVDVPEGQVCCGSPMIRTGQVDIVEDLVEKNRKALRDYDTIITVCAGCGATLKKDYPRYGVKLNVLDISEFLADRIDTIKMKPVNMRVTYHDPCHLKRGQGVEFEPRKILRKIPGLEFVEMEKPDQCCGSGGGVKSGKPEVAEALGRKKADMIRELDVDAVVTICPFCQLHIRDSLDLAGLENVRVMNILELLDLAYSD”: the protein production result was “failed”. As for “MEMKKSGRSLKMIFTQYFATVSLAFIALLCLIWAIFVISLNTKLIIPANQTEQELHRLEDKIEKADTFQAKRLPKDTAYLLMTKDGKIKESNMSKNLQQQALASYSGNAVSPNDYGYFMVFKRQKEVCIVNYRLEAHYSVAWMNKYLPNVSLLGLILTGLGVLLVFTLVTILFARRLQRQLSPIIAATQKIAKQNLDFTVQSSDIKEFNQVLNSLDTMRAALRDSLMHSWQVEQEKQNQIAALTHDIKTPLTVIKGNTELLKQTELSETQEAFVGYSLKNIGQVETYLQQLSYLAKNSQLQDFHPEKIKVAAFLEELSQNSQALAATKDIKIQFVNNLSDAQLTTYWDKGLLARALMNIISNAVEHSPQGSQLQLVCHLENELFQLTCLDSGQGFSREALDKAKMQFFQDDTSRHDRKHSGLGLTIADNIIRLHGGSLSLSNDAKTASGRVDVVLPLAKM”, the entry is “failed”; as for “MEMMLGKTYREMVFWMAWIIIPFLMEIVPALGGFIILLRKRLSIKDKAFSGKLPQITIIVPVYNSEDTLKGCIESIYNSDYPSEFIDVMLVDNQSSDNSFKIFTRCQKEFDGLSLRYMNSKQGKSKALNMALFNSSGKYIIHIDSDGKLHKDAIKNMVTRFEGNPHVHCMTGVILTDKELIEKTKGSFFKLLRKCEFFEYAQAFLAGRNFESEVGSIYTLSGAFSAFRKSTILKTQLYNSETVSEDTQITFQVKKLLNQKVYLCENALFFVDPIEGFNKLYTQRQRWQRGELEVSHMFLRDGLKFGKGFVSDFMVRTLMYDHTFAFPRMIWYFALIFLVFMNYPIYLVVGSVAVIYLLYSLSAFLFYLNVISYLKKYKEVRSYYAKKFYLIFLMPMYNFGVFWIRFCGIINSIQLQGNWKTLNLTDEWRNFLGVFKRDFSVVFKVLNKLRQVVNNE”, “failed”; as for “MEMNVKTNSSPTAPKPSKQTGWRIWWSLLRPHTLTAAFVPVFIGTAYSMQVGGINQIHLPLFLMMLLACLLIQAATNMFNEYFDYKRGLDHEGSVGIGGAIVRDGIQPKTVLNLAFGFFGIAILLGVYICINSSWWLAAIGLVCMAVAYLYTGGPLPIAYTPFGELTAGLFMGVIIIGISFFIQTGTVTSEVILLSIPSSILIGAILLANNIRDLDGDKENGRKTLAILVGRERAVGVLASMFIVSYIWTIALIIVGIVSPWMLIVFLSAPKAFKATKGFIGKSIPMEMVPAMIATAKTNTIFGFLMGIGLLLGYFL”, “failed”. For “MEMTKVTGKFDVKLTPENAYATGVGGVNLGRMALDKTFYGELEARSQGEMLSAMTAVKGSAGYVAIEQVVGKLCGRQGSFVLQHFGIMTDGQNRLHLEVVPHSGAGELTGLYGTMAISIENGQHFYEFSFCFEPASEVEG” the value was “not failed”. With “MENAPLLFQLPDDDTLYQALLARDPAYEGFAFVGVKSTGVFCRLTCAARKPKRENTVFFGSIKGCVEAGFRACLRCRPLERAGVQEPWVQTLLEQLGRDPERRWYEDDLVAQGLDPSTVRRAFKRYFGVTFLEMARLRRMGQGMQQLASGEPVIEAQISAGFDSDSGFRHAFSRLAGQPPSNLRGRELLKVDWLQTPIGVMLAVADAQVLHLLEFFDRPALANELQNLQKSSGSSIGFGRFAPIDQIEAELQRYFAGEAVHFATPLAMSASPFTRTVWQALRAIPLGTTCSYAEVARQVGSPSAVRAVARANAANQISIVIACHRVIGADGSLTGYGGGLWRKRWLLEHERRLHHLQGASASGL”, the protein production entry is “failed”. For “MENDKHNNPKTIFIPDDIAEGIFHHLPIKSLARFKVLSKKWTSMIESTYFSHKRLIRTGLPTPNMKFLHISQHFTANFVEEYSNSITFLLETFSRDDQNNRKTFDESQNKTIQVLGSCDGLVLLRIHDDFRSIYLINPTTKEHMKLSPEFMQWPFTLSYLTPAMANKPWRQLSQSVLDYDISVKRMPSLAGFGKDIVKKSYKVVLIYTRYEIHDHEFKAKVLSLDNGEQRDVGFYDIHHCIFCDEQTSVYANGSLFWLTLKKLSQTSYQLLAIDLHTEEFRWILLPECDTKYATNIEMWNLNERLCLSDVLESSNLVVWSLHQEYPTEKWEKIYSIKIDVIRTNQLHEKFWMLGLAAAYFSNIRNRQDQVSFFRQRTISYLPTMISPSNLML” the value was “failed”. As for “MENEKLPYISVIIIAYNRKEFLLDAIKSALNQTLDREYYEIIVIKNFQDDTIDNFIKENNIKGIISENKSLGGKISEALYVSKGEIVSFLEDDDLFFPNKLREVYDIFISNPNLVYYHNNFIKTNNRLFEIDYSENKKNKKIFLKLIELNNIKTINYLISKKLIAFNMSAITIRKSYFNDCLDILENIRIAHDMCFFFCLSGKSDTSKEILIYDKPLSIWFIHNSWSNTSCDLEIKNFKNKNFTIAKETLNAIVYIFNEFCIKNNLYNFYDNKQPLCDYLKLTISARKSQLYLLNEYEININDIKLFFKFVTMRKSIYLSGAFILVLFGKFISKKLSTKIFLYISFLLNTI”, the entry is “failed”; as for “MENETGGKDREVVEAVTNSEPGNGDGFAKKGDSYDDKLPSENVDKHMENEANEKEKEEDGAADELCALQDALETTLFQHLSNYAQKQMLQKLRSLRAKERKELSGEWKSLLAQEALLKSKKYSFSAELANATFHTWEEETRRMVL”, “not failed”; as for “MENIPFLRASTVPVIEYLDELKEIDASHIYTNYGPINQRFEQTIMSGFFQNRGAVTTVANATLGLMAAIQLKKRKKGKYALMPSFTFPATPLAAIWCGLEPYFIDISIDDWYMDKTVLWDKIEELKEEVAIVVPYATFGSWMNLEEYEELEKKGVPVVVDAAPGFGLMNGGMHYGQDFSGMIIYSFHATKPFGIGEGGLIYSKNEEDIQRIKRMGNFGFDTNRECTMMGFNCKMSEYAAAIGIATMKKWDDKLKERTRISEWYKQLLQSNGLMKKGWQLQKTEAVIQQFMPILCPEEVRNKQVIEDLKKQKIEARLYFSPSCHQQVLFRNYKSTDLTRTNKIAKRIVSLPLWEGMTKEIVEQIVICLGQKVVSADE”, “not failed”. For “MENIQDSVSEYTKDSAQKIDTDALYHEQMLKALYAGFGIRFCAFIIDLLIIFGVHSLILKPIYHFTNLDSAKLWIDYFSVGHLLDALVFYLYFVLMTKYFKQTLGKMICNIRVERMDRQQLTWTDVLFREWIGRIISGVFANLPYLVTIFTKKHRGIHDYFADTVVIKNKFEKFFYLK” the value was “failed”; for “MENKEISYEIIDFSGETNVQFRTSVDPGSYIPTHWHRAIEIIYMQEGSLDVIVESESFTIYKGDCILVNGNVLHSTKCTAPNTAILLQIPLNFMEKYIPNLGQLIFLWDYRTEDPVKKTKLMMLKTTLEQLQVINDIQPDGYLLRFNSLIFELMFQLYHNFSVQVFPQDINHKKKEMDRLDP”, “not failed”; for “MENKYLVSIIVPVHNTADYLHKCIESLRSQTLQQIEIILVDNLSVDGSSEICDEYAKIDKRIKVLHLSIAGLSIARNAGMRIASAPYIGFVDSDDYVEPAMFEKMLDAMVQSDAEIAYCNFLLEYEFKPNESPYRNSGDIVIRDPKNVLQDMMMEKVSCSACTKLYKSGFLTSLQFPEGKNYEDRLVMYEWVALCKKVVWVDSPFYHYVERQTSICHTMSPMNLYHYFLAEYARMRFMEKYSLFEEEDLFKIRTRLIGTCLTIFKEILLKVNLREFKEPVKDMRQKMKEIAALPEDTYELKYRRRVRKIAYHWHLYYLTHFLFKKGGDSLEHHHHHH”, “failed”. As to “MENMENDENIVVGPKPFYPIEEGSAGTQLRKYMERYAKLGAIAFTNAVTGVDYSYAEYLEKSCCLGKALQNYGLVVDGRIALCSENCEEFFIPVIAGLFIGVGVAPTNEIYTLRELVHSLGISKPTIVFSSKKGLDKVITVQKTVTTIKTIVILDSKVDYRGYQCLDTFIKRNTPPGFQASSFKTVEVDRKEQVALIMNSSGSTGLPKGVQLTHENTVTRFSHARDPIYGNQVSPGTAVLTVVPFHHGFGMFTTLGYLICGFRVVMLTKFDEETFLKTLQDYKCTSVILVPTLFAILNKSELLNKYDLSNLVEIASGGAPLSKEVGEAVARRFNLPGVRQGYGLTETTSAIIITPEGDDKPGASGKVVPLFKAKVIDLDTKKSLGPNRRGEVCVKGPMLMKGYVNNPEATKELIDEEGWLHTGDIGYYDEEKHFFIVDRLKSLIKYKGYQVPPAELESVLLQHPSIFDAGVAGVPDPVAGELPGAVVVLESGKNMTEKEVMDYVASQVSNAKRLRGGVRFVDEVPKGLTGKIDGRAIREILKKPVAKM”, the protein production entry is “not failed”. For “MENNGEMNAQPELSGIIDITKTYMYEKLWNICAGPLCVLPKPGEKVYYFPQGHIELIENSTRDELDHIRPIFDLPSKLRCRVVAIDRKVDKNTDEVYAQISLMPDTTDMSQPISTQNLVAKDLYGQEWSFKHVFRGTPQRHMFTSGGGWSVFATTKRLIVGDIFVLLRGENGELRFGIRRAKHQQGHIPSSVISANCMQHGVIASVVNAFKTKCMFNVVYKPSYDKFVDAMNNNYIVGSRFRMQFEGKDFSEKRYDGTIIGVNDMSPHWKDSEWRSLKVQWDELSPFLRPNQVSPWDIEHLIPSSDISQSSATLSNLWTCQEIGQRSMNSPISVPEFSYPNAIEDSKFLSGLLLNHSLLAIPNENYNSDQMIQPRKEDITTEATTSCLLFGVDLTKVHMQGVAISRAVDLTAMHGYNQLIQKLEELFDLKDELRTRNQWEIVFTNNEGAEMLVGDDPWPEFCNMAKRIFICSKEEIKKMKLKNKFFQPESKALTSSDVPPNVTDN” the value was “failed”; for “MENNPNNNQASLERNELHNTIWKVANELRGSVDGWDFKQYVLGILFYRYISENMTHYINKEERKRDPSFDYAKLSDEKAERGRKHLIEQKGFFIPPSALFCNALKNACHNEDLNVTLQNIFNEIEKSSLGTPSEENVKGLFADLDVNSNKLGSSHQNRVEKLTKILEAIGGMQLGDYLKSGIDVFGDAYEYLMAMYASNAGKSGGEFFTPQEVSELLAKITLHGQESVNKVYDPCCGSGSLLLQFSKVLGDKNVSKGYFGQEINLTTYNLCRINMFLHDINYSKFHIAHGDTLLDPKHEDDEPFDAIVSNPPYSTKWVGDSNPILINDERFSPAGVLAPKNAADLAFTMHMLSYLSNSGTAAIVEFPGVLYRGNAEAKIREYLVKENVIDCVIALPDNLFFGTSIATCILVLKKNKQDDTTLFIDASKEFVKEGKKNKLKERNREKILQTYIERKEIKHFCALANIEKIKENDYNLSVNRYVEQEDTKEAIDIKALNSEIAQIVEKQSALRNRLESIIKELEGGQNA”, “failed”. For the sequence “MEPGLDGGYLLLGVDWAINDKGDTVYRPVGLPDPDKVQRDLASQCASMLNVALRPEMQLEQVGGKTLLVVYVPEADVTHKPIYKKATGLPGGAYRRIGSSDQRCVLEHHHHHH”, the protein production entry is “failed”. For “MEPKVTIHRYYSRQAKYEGAVEADLELCIKHCGGDVVRIELVNRLHGIQLQRKLRRLLLLMFLSIAYFVGTCGFDNRTISFLQPRILYPLITCASVAILLIRSTLNLVQAERLFYSWDMALQMETVRSFGRESVLCVQRGHIEDIVLNEVIEDLDVKYMLILRTKGSQFKKRPIIPLFNSQSPSIECLQHTYHVLHKYWLNSTKDRSEESYSKDKQSLVNS” the value was “failed”; for “MEQEILALFEKILSRKVGFNDELIESDILDSILAVDLVLEVQDVYGCVIPPTEVATVLKTPADLARYIEENRG”, “failed”.
